Experimental data published in paper PMC8231724, “A Glycolipid Glycosyltransferase with Broad Substrate Specificity from the Marine Bacterium “Candidatus Pelagibacter sp.” Strain HTCC7211” (Applied and Environmental Microbiology, 2021).

Key:
Assay in all cases: LC-MS of glycolipid product, Hanes-Woolf plot
Type in all cases: biochemical, Candidatus Pelagibacter sp. HTCC7211
Conditions in all cases: acceptor C16:0/C18:1 DAG, no added Mg2+, Tricine-KOH pH 8.5, 35 °C, 2 mM DTT
[1] = substrate: O=c1ccn([C@@H]2O[C@H](CO[P@@](=O)(O)O[P@@](=O)(O)O[C@H]3O[C@H](CO)[C@@H](O)[C@H](O)[C@H]3O)[C@@H](O)[C@H]2O)c(=O)[nH]1
Excerpt: (§1) LC-MS of glycolipid product, Hanes-Woolf plot on GTcp

[2] = substrate: O=c1ccn([C@@H]2O[C@H](COP(=O)(O)OP(=O)(O)O[C@H]3O[C@H](CO)[C@H](O)[C@H](O)[C@H]3O)[C@@H](O)[C@H]2O)c(=O)[nH]1
Excerpt: as §1

[3] = substrate: O=C(O)[C@H]1O[C@H](OP(=O)(O)OP(=O)(O)OC[C@H]2O[C@@H](n3ccc(=O)[nH]c3=O)[C@H](O)[C@@H]2O)[C@H](O)[C@@H](O)[C@@H]1O
Excerpt: as §1

B1: GTcp (Candidatus Pelagibacter sp. HTCC7211) (protein)
chain: MKILIVTDAYYPQVNGVVRTLHETGEILKSQGHTIEYITPQQFLTVPMPKYNEIRLSLNVWPRVSNLINSIKPDAIHIATEGPLGFMARRHCIKKGLKFTTSFHTRFDKYIKLYMPIIPAKWSEKFLCNFHNKAERILVTTESMREELIALGVDNNKMVTWTRGGNHGAFKNPVKRDLPYKRPIWIYVGRVAVEKNIKAFLDLDLEGTKVIIGKGPNLNKLKKKYPNDYFLGEKTNGELASHFASSDVFVFPSKTDTFGIVVLESLSCGTPVAAYPVPGPKDILGGSKIDTLDQDLKTSALKALKVNREDCLEFAKKYSWEETARIFYNNISPN
notes: full length, 334 aa (1,005 bp), codon-optimised synthetic gene in pET22b, His-tagged, E. coli BL21-CodonPlus(DE3)-RIL, Ni-NTA and Superdex 200, 38 kDa monomer, about 70 kDa dimer
[1]
  Km: 82 ± 0.3 µM
  kcat: 0.0975 ± 0.00667 s⁻¹
  kcat/Km: 1190 ± 45 M⁻¹ s⁻¹
[2]
  Km: 32 ± 0.4 µM
  kcat: 0.0172 ± 0.005 s⁻¹
  kcat/Km: 537 ± 48.3 M⁻¹ s⁻¹
[3]
  Km: 68 ± 0.5 µM
  kcat: 0.0675 ± 0.00167 s⁻¹
  kcat/Km: 993 ± 60 M⁻¹ s⁻¹
